B1: P2-G12 IgG1 (antibody, V domains shown)
VH: EVQLVQSGGGLVQPGGSLRLSCAASGFTFSSYSMNWVRQAPGKGLEWVSAISGSGGSTYYADSVKGRFTISRDNSKNTLYLQMNSLRAEDTAVYYCARDPYGSGSYYRGDAFDIWGQGTMVTVSS
VL: ELTQPPSVSVAPGKTARITCGGNNIGSKSVHWYQQKPGQAPVLAIYYDSDRPSGIPERFSGSNSGNTATLTISRVEVGDEADYYCQVWDSVSDVVFGGGTKLTVL
notes: also called 单克隆抗体P2-G12
B2: P2-G12 Fab (Fab, V domains shown)
VH: B1 VH
VL: B1 VL
notes: Fully human Fab from a phage display library, expressed in E. coli HB2151 and purified on Ni-NTA; P2-G12 is the only antibody described; also called PD-1抗体 (Fab形式)

What was measured:
[1] = target: T1, PD-1(ECD)-hFc融合蛋白 (human, UniProt Q15116 25-170); assay: ELISA, PD-1(ECD)-hFc coated, serially diluted antibody, HRP-anti-Fab detection; reference: P2-G12 Fab
T1 construct: extracellular domain; It was biotin-labelled for the panning and coated on the plate in the ELISA; also called PD-1(ECD)-hFc蛋白; PD-1蛋白; not shown: hFc (human Fc)

[2] = target: T2, 人全长PD-1蛋白 (过表达于HEK293T细胞) (human, UniProt Q15116 25-288); assay: flow cytometry on HEK293T cells overexpressing human full-length PD-1, anti-human IgG1-FITC detection
T2 construct: whole, on cells; also called 过表达PD-1的HEK293T细胞

[3] = target: T1, PD-1(ECD)-hFc融合蛋白; assay: ELISA, PD-1(ECD)-hFc coated, serially diluted antibody, HRP-anti-Fab detection

T1 sequence (Q15116 25-170): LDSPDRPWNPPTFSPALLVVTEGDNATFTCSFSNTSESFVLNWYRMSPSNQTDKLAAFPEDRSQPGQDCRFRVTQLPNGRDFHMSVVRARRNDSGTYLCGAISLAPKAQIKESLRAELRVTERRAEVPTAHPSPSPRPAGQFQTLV
T2 sequence (Q15116 25-288): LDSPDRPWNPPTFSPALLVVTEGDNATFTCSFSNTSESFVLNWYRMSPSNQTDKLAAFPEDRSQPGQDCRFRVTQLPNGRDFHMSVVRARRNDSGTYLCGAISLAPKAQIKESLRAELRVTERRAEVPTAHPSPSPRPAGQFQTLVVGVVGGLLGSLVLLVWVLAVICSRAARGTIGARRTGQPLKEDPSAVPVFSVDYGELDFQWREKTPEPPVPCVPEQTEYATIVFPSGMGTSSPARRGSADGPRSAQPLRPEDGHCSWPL

| Binder | fold increase of binding ability against the Fab form [1] [fold] | binding result [2] | binding result [3] |
| --- | --- | --- | --- |
| B1 | 100 | binds |  |
| B2 |  |  | binds |

Reference: patent CN111378038A (UNIV FUDAN, dated 2020)
